The values that follow come from patent US20170368169A1 (MARENGO THERAPEUTICS, published 2017).

The target in experiment [1] is T1, human mesothelin (generated from SEQ ID NO: 181) (human).
T1 construct: Antigen construct made in house; BirA was co-transfected when biotinylation was required; also called hMeso 1-7; hMesothelin
T1 chain: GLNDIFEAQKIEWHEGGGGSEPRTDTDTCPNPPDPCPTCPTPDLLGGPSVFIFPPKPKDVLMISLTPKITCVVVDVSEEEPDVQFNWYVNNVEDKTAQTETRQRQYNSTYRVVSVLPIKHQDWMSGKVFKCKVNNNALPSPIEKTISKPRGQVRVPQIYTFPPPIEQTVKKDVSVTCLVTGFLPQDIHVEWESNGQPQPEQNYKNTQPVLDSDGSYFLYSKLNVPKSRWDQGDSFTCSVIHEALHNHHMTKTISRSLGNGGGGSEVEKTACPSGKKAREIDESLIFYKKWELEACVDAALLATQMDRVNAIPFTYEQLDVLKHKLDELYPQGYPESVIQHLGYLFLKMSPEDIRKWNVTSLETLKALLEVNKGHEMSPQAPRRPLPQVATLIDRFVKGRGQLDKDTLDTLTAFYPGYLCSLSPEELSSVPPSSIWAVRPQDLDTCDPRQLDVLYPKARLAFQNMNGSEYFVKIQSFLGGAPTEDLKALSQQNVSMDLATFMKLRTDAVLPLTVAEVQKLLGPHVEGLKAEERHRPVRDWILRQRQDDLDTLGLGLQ
The experiment can be described thus: ELISA on plate-bound antigen, molecule titrated 1 uM-1 pM. (An ELISA detects its analyte on a solid surface through an enzyme-linked reagent.)

Experiment [2] concerns the target T2, human PD1L1 (generated from SEQ ID NO: 178) (human).
T2 construct: Antigen construct made in house; also called hPD1L1; human PDL1
The description is as above.

As a reminder, the EC50 is the concentration giving half of the maximal effect. A high value points to weaker potency.

B1: Multispecific molecule 5 (bispecific antibody, human IgG1, kappa, lambda)
heavy 1: not shown
light 1: not shown
heavy 2: EVQLLESGGGLVQPGGSLRLSCAASGFTFSSYIMMWVRQAPGKGLEWVSSIYPSGGITFYADTVKGRFTISRDNSKNTLYLQMNSLRAEDTAVYYCARIKLGTVTTVDYWGQGTLVTVSSASTKGPSVFPLAPSSKSTSGGTAALGCLVKDYFPEPVTVSWNSGALTSGVHTFPAVLQSSGLYSLSSVVTVPSSSLGTQTYICNVNHKPSNTKVDKRVEPKSCDKTHTCPPCPAPELLGGPSVFLFPPKPKDTLMISRTPEVTCVVVDVSHEDPEVKFNWYVDGVEVHNAKTKPREEQYNSTYRVVSVLTVLHQDWLNGKEYKCKVSNKALPAPIEKTISKAKGQPREPQVCTLPPSREEMTKNQVSLSCAVKGFYPSDIAVEWESNGQPENNYKTTPPVLDSDGSFFLVSKLTVDKSRWQQGNVFSCSVMHEALHNHYTQKSLSLSPGK
light 2: QSALTQPASVSGSPGQSITISCTGTSSDVGGYNYVSWYQQHPGKAPKLMIYDVSNRPSGVSNRFSGSKSGNTASLTISGLQAEDEADYYCSSYTSSSTRVFGTGTKVTVLGQPKANPTVTLFPPSSEELQANKATLVCLISDFYPGAVTVAWKADGSPVKAGVETTKPSKQSNNKYAASSYLSLTPEQWKSHRSYSCQVTHEGSTVEKTVAPTECS
notes: Mesothelin targeting arm and PDL1 targeting arm
In the case of B1, the EC50 was 163 nM in experiment [1] and 0.25 nM in experiment [2].
